The numbers were not newly measured in paper PMC7887631, which cites them from elsewhere.

The series deals with Prion protein (PrPC) (UniProt P04156).

A word on the Kd: it is a measure of binding affinity in units of concentration. On to STI1 (from UniProt P31948), for which the Kd is 0.1 µM.
